Experimental data from publication PMC3088361.

Each substance was assayed against soluble CD4 (UniProt P01730) (assay: SPR).
For “HIV-1 YU-2 gp120 A281G (natural protein)”, the Kd was 12.3 nM. Substance “HIV-1 YU-2 gp120 I420R (natural protein)” has a Kd of 24.8 nM. With “HIV-1 YU-2 gp120 I423M/N425K/G431E (natural protein)” the Kd was 78.1 nM. With “HIV-1 YU-2 gp120 K282A (natural protein)” the Kd was 11.9 nM. With “HIV-1 YU-2 gp120 N279A (natural protein)” the Kd was 34.6 nM. In the case of “HIV-1 YU-2 gp120 N280A (natural protein)”, the Kd is reported as 6.8 nM. Substance “HIV-1 YU-2 gp120 P124A (natural protein)” has a Kd of 26.2 nM. With “HIV-1 YU-2 gp120 R456A (natural protein)” the Kd was 11.3 nM. “HIV-1 YU-2 gp120 S375W/T257S (natural protein)” gave a Kd of 0.9 nM. With “HIV-1 YU-2 gp120 T278A (natural protein)” the Kd was 7.3 nM. “HIV-1 YU-2 gp120 T283A (natural protein)” was tested, and the Kd was 16.7 nM.
